Experimental data as given in patent US20200057048A1 (published 2020).

Target: T1, human islet-specific glucose-6-phosphatase catalytic subunit-related protein (IGRP) peptide on HLA-DRA*01:01 … (human)
T1 peptide: QHLQKDYRAYYTF
Test: multimer staining
Experimental: Three million transduced and sorted GP+envAm12 were plated per well of a 6 well plate in a final volume of 3 ml. Next day 100,000 JURMA-hCD4 were co-cultured with the pre-plated transduced GP+envAm12 in a final volume of 3 ml supplemented with 8 ug/ml of polybrene. This co-culture was maintained during two weeks changing the media every 2 or 3 days. After co-culture, JURMA-hCD4 cells were harvested analyzed by flow cytometry and sorted for high transgene expression. Cells were then stained with PE labeled heterodimers.

B1: IGRP13-25 TCR (TCR, V domains shown)
Valpha: DQQVKQNSPSLSVQEGRISILNCDYTNSMFDYFLWYKKYPAEGPTFLISISSIKDKNEDGRFTVFLNKSAKHLSLHIVPSQPGDSAVYFCAATNSGGSNYKLTFGKGTLLTVNP
Vbeta: DGGITQSPKYLFRKEGQNVTLSCEQNLNHDAMYWYRQDPGQGLRLIYYSQIVNDFQKGDIAEGYSVSREKKESFPLTVTSAQKNPTAFYLCASGGRVYQPQHFGDGTRLSIL
Question: Does B1 bind?
Answer: recognises
